One molecule from WO2020033925A2 (dated 2020) can be followed below.

This assay deals with human BTN3A1 ectopically expressed on K32 cells (human, UniProt O00481 30-513). The experiment in a line: cell-based or functional assay.
Chain of human BTN3A1 ectopically expressed on K32 cells (O00481 30-513 limits assumed, form in doubt): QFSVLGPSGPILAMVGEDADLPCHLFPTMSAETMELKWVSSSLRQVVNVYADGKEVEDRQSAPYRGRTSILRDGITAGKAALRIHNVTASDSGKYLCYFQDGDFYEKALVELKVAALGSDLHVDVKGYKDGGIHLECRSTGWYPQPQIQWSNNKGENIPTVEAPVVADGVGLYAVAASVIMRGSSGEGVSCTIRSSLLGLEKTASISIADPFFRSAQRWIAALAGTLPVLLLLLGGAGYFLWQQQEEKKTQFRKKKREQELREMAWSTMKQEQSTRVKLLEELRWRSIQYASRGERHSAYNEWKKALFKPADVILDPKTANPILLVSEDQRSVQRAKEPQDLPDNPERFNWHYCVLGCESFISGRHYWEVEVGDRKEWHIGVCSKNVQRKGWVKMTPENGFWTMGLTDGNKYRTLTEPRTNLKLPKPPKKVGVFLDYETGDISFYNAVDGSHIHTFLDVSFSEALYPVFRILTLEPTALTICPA

B1: anti-CD277 monoclonal antibody mAb1 (antibody, V domains shown)
VH: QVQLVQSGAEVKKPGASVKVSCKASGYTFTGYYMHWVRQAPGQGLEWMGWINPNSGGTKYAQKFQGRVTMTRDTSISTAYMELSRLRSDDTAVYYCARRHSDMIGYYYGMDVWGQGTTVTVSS
VL: DIQMTQSPSSVSASVGDRVTITCRASQGISSWLAWYQQKPGKAPKLLIYAASSLQSGVPSRFSGSGSGTDFTLTISSLQPEDFATYYCQQATDFPPTFGGGTKVEIK
In the case of B1, the “proliferation of gated CD4+ T cells within total PBMCs co-cultured with anti-CD3/anti-CD28 coated BTN-K32 cells (Figure 3A)” value was at least 1.5 fold, the “proliferation of gated CD8+ T cells within total PBMCs co-cultured with anti-CD3/anti-CD28 coated BTN-K32 cells (Figure 3C)” value was at least 1.5 fold, the “proliferation of purified CD4+ T cells stimulated with BTN-K32 cells (Figure 4A)” value was at least 1.5 fold and the “proliferation of purified CD8+ T cells stimulated with BTN-K32 cells (Figure 4C)” value was at least 2 fold. For the same molecule, the “release of IFN-g from purified CD4+ T cells stimulated with BTN-K32 cells (ELISA, Figure 5A)” value is over 2 fold and the “release of IFN-g from purified CD8+ T cells stimulated with BTN-K32 cells (ELISA, Figure 5C)” value was about 1300 fold.
